Experimental data as given in publication PMC2637916.

Assays:
[1] = target: Guanylyl cyclase activating protein 1 (GCAP1), recombinant, with the D6S mutation (UniProt P46065); experiment: SEC
[2] = target: Guanylyl cyclase activating protein 1 (GCAP1), recombinant, with the D6S mutation (UniProt P46065); experiment: pulsed-field gradient diffusion NMR

stoichiometry N [1]: 2
stoichiometry N [2]: 2
Substance: Guanylyl cyclase activating protein 1 (GCAP1), recombinant, with the D6S mutation (from UniProt P46065 1-205) (natural protein)
